Molecular target: FITC-labeled BMF peptide (FITC-…)
Assay: fluorescence polarisation

Sequence of 6xHis-tagged LC8 (DYNLL2) (Q96FJ2 whole entry): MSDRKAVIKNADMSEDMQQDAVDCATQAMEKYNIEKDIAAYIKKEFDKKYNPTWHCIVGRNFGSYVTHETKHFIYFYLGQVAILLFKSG

Question: How did the LC8 concentration at 80% saturation of the labeled BMF peptide turn out when “6xHis-tagged LC8 (DYNLL2) (from UniProt Q96FJ2 1-89) (natural protein)” was run?
Answer: 12 µM
